Source: patent EP2336188A1 (Sanofi-Aventis, dated 2011)
Numbering of substitutions follows the chain as printed. Several values for one entry are separate records, joined by “and”; a condition that tells them apart may be missing. Equal values may be shown once.

B1: humanized anti-GPVI Fab VL1 with VH2 (Fab, V domains shown)
VH: QVQLQESGPGLVAPSQSLSITCTVSGFSLTGYGVNWVRQPPSRGLEWLGMIWGDGSTDYQSTLKSRLSISKDNSKSQVFLKMNSLTTDDTARYYCARDLPMDYWGQGTSVTVSS
VL: DIQMTQSPSSLSASVGGRVTITCKASQDINKYIAWYQHKPGKGPSLLIHYTSTLQPGVPSRFSGSGSGRDYSFSISNLQPEDIATYYCLQYANLLTFGGGTKLEIKR
B2: humanized anti-GPVI Fab VL2 with VH2 (Fab, V domains shown)
VH: B1 VH
VL: B1 VL with N93H
B3: humanized anti-GPVI Fab VL3 with VH4 (Fab, V domains shown)
VH: B1 VH with G31Y
VL: B1 VL with N93L
B4: humanized anti-GPVI Fab VL1 with VH5 (Fab, V domains shown)
VH: B1 VH with Y103E
VL: B1 VL
B5: humanized anti-GPVI Fab VL1 with VH3 (Fab, V domains shown)
VH: B1 VH with Q1E, Q5L, Q16G, S42G, R43K, T86R, Q106L
VL: B1 VL
B6: humanized anti-GPVI Fab VL1 with VH1 (Fab, V domains shown)
VH: B1 VH with N73T
VL: B1 VL
B7: humanized anti-GPVI Fab VL1 with VH4 (Fab, V domains shown)
VH: B1 VH with G31Y
VL: B1 VL
B8: humanized anti-GPVI Fab VL3 with VH2 (Fab, V domains shown)
VH: B1 VH
VL: B1 VL with N93L

The binders below were run against T1, human GPVI on platelets (human, UniProt Q9HCN6 21-339) (assay: cell-based or functional assay).
T1 sequence (looked up): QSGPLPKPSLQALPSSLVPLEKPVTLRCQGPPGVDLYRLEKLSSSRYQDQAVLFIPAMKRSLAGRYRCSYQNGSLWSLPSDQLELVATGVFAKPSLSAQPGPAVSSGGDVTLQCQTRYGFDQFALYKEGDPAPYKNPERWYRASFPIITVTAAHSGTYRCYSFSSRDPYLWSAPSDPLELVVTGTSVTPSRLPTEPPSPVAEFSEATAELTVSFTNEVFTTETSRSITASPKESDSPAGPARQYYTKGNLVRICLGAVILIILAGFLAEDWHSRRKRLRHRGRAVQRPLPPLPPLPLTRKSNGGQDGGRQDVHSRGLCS

Row | Binder | IC50 for inhibition of collagen induced platelet aggregation (human platelet rich plasma)
1 | B1 | 2.3 µg/mL and 2 µg/mL and 1.1 µg/mL
2 | B2 | 1.4 µg/mL and 2.4 µg/mL and 2.3 µg/mL
3 | B3 | 1 µg/mL and 2.3 µg/mL and 2 µg/mL
4 | B4 | 1.9 µg/mL and 2.3 µg/mL and 1.2 µg/mL
5 | B5 | 1.5 µg/mL and 1.7 µg/mL
6 | B6 | 1.5 µg/mL and 2.3 µg/mL
7 | B7 | 1.6 µg/mL and 1.8 µg/mL and 1.2 µg/mL
8 | B8 | 1.9 µg/mL and 0.9 µg/mL and 2.1 µg/mL
